Laboratory results as given in US20160228546A1 (CYTOMX THERAPEUTICS, published 2016).

What follows are binders tested against T1, anti-VEGF IgG antibody (DyLight-labelled in the FACS analyses.) (assay: method not stated).
T1 construct: It was DyLight-labelled in the FACS analysis; also called anti-VEGF antibody; DyLight labeled anti-VEGF
T1 sequence (VH, as listed by the source limits assumed, chain 1 of 2): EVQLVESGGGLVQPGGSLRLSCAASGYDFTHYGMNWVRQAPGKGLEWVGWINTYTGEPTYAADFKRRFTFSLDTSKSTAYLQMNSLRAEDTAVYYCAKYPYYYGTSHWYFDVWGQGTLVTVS
T1 sequence (VL, as listed by the source limits assumed, chain 2 of 2): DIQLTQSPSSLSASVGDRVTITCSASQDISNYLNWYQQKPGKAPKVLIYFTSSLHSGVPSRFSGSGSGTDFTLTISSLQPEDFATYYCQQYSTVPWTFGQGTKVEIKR
Work on PCSEWQSMVQPRCYYGG [JS306] yielded a Kd greater than 600 nM.

What follows are binders tested against T2, anti-VEGF scFv AB (assay: FACS, peptide displayed on E. coli).
T2 construct: VL-linker-VH designed from ranibizumab; also called anti-VECF scFv
T2 sequence (scFv, as listed by the source): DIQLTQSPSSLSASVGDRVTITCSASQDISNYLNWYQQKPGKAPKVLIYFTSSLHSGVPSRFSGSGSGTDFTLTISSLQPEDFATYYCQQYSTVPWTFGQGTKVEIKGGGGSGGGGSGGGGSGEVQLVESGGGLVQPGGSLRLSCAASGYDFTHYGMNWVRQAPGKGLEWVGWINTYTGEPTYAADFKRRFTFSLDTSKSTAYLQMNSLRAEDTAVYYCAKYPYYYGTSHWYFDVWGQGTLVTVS
GHGMCYTILEDHCDRVR (also called 292MM) [JS292]: binds. GVGLCYTILEQWCEMGR (also called 313MM) [JS313]: binds. GAMACYNIFEYWCSAMK (also called 315MM) [JS315]: binds. ATAVWNSMVKQSCYMQG (also called 283MM) [JS283]: binds. VHAWEQLVIQELYHC (also called 311MM) [JS311]: binds.

Each binder was assayed against T1, anti-VEGF IgG antibody (assay: FACS of eCPX3.0 clones at 3 concentrations of DyLight labeled anti-VEGF).
In the case of PCSKWESMVLQSCYFG [JS1829], the “fold higher affinity than 306P” value is reported as no less than 10 fold. PCSAWQSMVEQRCYFG [JS1827] was tested, and the “fold higher affinity than 306P” value was no less than 10 fold. In the case of SCTAWQSMVEQRCYFG [JS1825], the “fold higher affinity than 306P” value is reported as no less than 10 fold.
